# In the nanobody polyreactivity screen of Harvey et al. (2022):
# Test: yeast display, Sf9 membrane polyspecificity reagent, FACS + sequencing; frameworks hold sequencing errors
# Procedure, shortened: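 After 36–48 hours of galactose induction, yeast (Saccharomyces cerevisiae BJ5465) displaying a synthetic nanobody library were stained at 4 °C for 1 hour with 10% biotinylated, detergent-solubilized Sf9 membrane reagent. Streptavidin microbeads enriched the stained cells before FACS sorting into low and high (top ~1%) gates on anti-HA and streptavidin fluorescence. Each clone's polyreactivity label reflects its gate of origin.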
row,Sequence,polyreactivity (PSR sort gate)
1,QGQLVESGGGLVQAGGRLRLSCAASGYNFGSYAMGWYRQAPGKERELVAAISGGGSTNYADSVKGRFTISRDNAKNTVYLQMHSLKPEDTAVYYCAAYPYLYPLRFEEYDHWGQGTQVTVSS,low polyreactivity
2,QGQLVESGGGLVQAGGSIRLSCAASGSTTFYAMGWYRQAPGKEWELVATISSSAGSTYYADSVKGRFTISRDNAKNTVYLQMNSLKPEDTAFYYCAKAAYGNSYTSDYWGQGTQVTVSS,low polyreactivity
3,QGQLVESGGGLVQAGGSLRLSCAASARTYGNYAMGRYREAPGKERELVADITRRGGSTSYADSVKGRFTISRDNAKNTVYLQMNSLKPEDTAVYYCNKRTTPYYSQGITRIEYDYWGQGTQVTVSS,low polyreactivity
4,QGQLVESGGGLVQAGGSLRLSCAASGFIFFSNAMGWYRQEPGKERELVAAISRIGVSTYYADSVKGRFTISRDNAKNTVYLQLNSLKPEDTAVYYCAADLSDYWRGDSWGQGTLVTVSS,low polyreactivity
5,QGQLVESGGGLVQAGGSLRLSCAASGFIFSSNAMGLYRHAPGKERELVAAISSSGGNTYYADSVKGRFTISRDNAKKTVDLQMNSLKPEDTAVYYCAADLSSAYGHDYWGLGTQVTVSS,low polyreactivity
6,QGQLVESGGGLVQAGGSLRLSCAASGFTFGHYAMGWYRQAPGKERELVAAIRWSGGSTYYADSVKGRFTISRDNAKNTVYLQMNSLKPEDTAVYYCAARGFDGYEYDYWGQGTQVTVSS,low polyreactivity
7,QGQLVESGGGLVQAGGSLRLSCAASGFTFWYYAKGWSRQAPRKEREMVAVINTSGASTYADSVKGRFTISRDNAKITVDLQMNSLKPEDTAVYYCAAEGIATYPYDYWGHGTQVTVSS,low polyreactivity
8,QGQLVESGGGLVQAGGSLRLSCAASGISFSFYAMGWYRQAPGKERELVADITLSGGRTYYADSVKGRFTISRDNAKNTVYLQMNSLKPEDTAVYYCNADTYERVDYWGQGTQVTVSS,high polyreactivity
9,QGQLVESGGGLVQAGGSLRLSCAASGITFYYYAMGWYRQAPGKERELVAAINWSGTSTYYADSVKGRFTISRDNAKNTVYLQMNSLKPEDTAVYYCNAERGRSFWWAYDYWGQGTQVTVSS,low polyreactivity
10,QGQLVESGGGLVQAGGSLRLSCAASGLIFYKYAMGWYRQAPGKERELVAVISWSGGSTYYADSVKGRFTISRDNAKNTVYLQMNRLKPEDTAVYYCAADTSYYRIRGWFGRVDYGYWGQGTQVTVSS,high polyreactivity
11,QGQLVESGGGLVQAGGSLRLSCAASGRIFEFNARGWYRQAPGKERELVAANSRSGGSTYYADSVKGRFTISRDKAKNTVYLQMNTQKPEHTAVYYCNAVYHYYPLYYWKYGYWGQGTQVTVSS,low polyreactivity
12,QGQLVESGGGLVQAGGSLRLSCAASGRIFGHYAMGWYRQAPGKERELVAAISQSGTNTYYADSVKGRFTISRDNAKNTVYLQMNSLKPEDTAVYYCAAKPPRRYQLMDYWGQGTQVTVSS,high polyreactivity
13,QGQLVESGGGLVQAGGSLRLSCAASGRIFYAYAMGWYRQAPGKERELGAAITSSGGRTYYADSVKGRFTISRDTAKNTVYLQLNSLKPEDTAVYYCAAYDYWGQGTQVTVSS,low polyreactivity
14,QGQLVESGGGLVQAGGSLRLSCAASGRIFYGNVMGWYRQAPGKERELVADISYDGGSTYYADSVKGRFTISRDNAKNTVYLQMNSLKPEDTAVYYCNKREVFIYGTTYDYWGQGTQVTVSS,low polyreactivity
15,QGQLVESGGGLVQAGGSLRLSCAASGRNFRINDMGWYRQAPGKERELVAAITWSGGSTYYADSVKGRCPISRDNAKNTVYLQMHSLKPEDTAVYYCAADQAYFWGYYYWGQGTQVTVSS,low polyreactivity
16,QGQLVESGGGLVQAGGSLRLSCAASGRTFKYNVMGWYRQAPGKERELVAAISSGGGTNYADSVKGRFTISRDNAKNTVDLQMNSLKPEDTAVYYCAAKYAWRLLEMYYWGQGTQVTVSS,low polyreactivity
17,QGQLVESGGGLVQAGGSLRLSCAASGRTFYRYAMGWYRQAPGKERELVAAITRRGDSTSYADSVKGRFTISRDNAKNTVYLQMNSLKPEDTAVYYCATLVQGSVYGLYGGGYWGQGTQVTVSS,low polyreactivity
18,QGQLVESGGGLVQAGGSLRLSCAASGRTFYRYAMGWYRQAPGQERELVASITRGTSTNYADSVKGRFTISRDNAKNTVYLQMNSLKPEDTAVYYCAAGASGLFWDYDYWGQGTQVTVSS,high polyreactivity
19,QGQLVESGGGLVQAGGSLRLSCAASGRTVGEYTMGWSRPAPGKERELVAAISSAGRTNYADSVKGRFTISRDNAKNTVYLQMHRLKPEDTAVYYCAADWTDDVPGYDYWGQGTKVTVSS,low polyreactivity
20,QGQLVESGGGLVQAGGSLRLSCAASGSIFEGYVMGWYRQAPGKERELFATISFSGGSTYYADSVKGRFTISRDNAKNTGYLQMNSLKPVDTAVYFCADSVPYKFYSVVSVRYEYWGQGTQVTVSS,low polyreactivity
21,QGQLVESGGGLVQAGGSLRLSCAASGSIFVLNAMGWYRQAPGKERELVAAISGGSTNYADSVKGRFTISRDNAKNTVYLQMNSLKPEDTAVYYCAARARRRYYYWGQGTQVTVSS,high polyreactivity
22,QGQLVESGGGLVQAGGSLRLSCAASGSSFRGNALGGYRQAPGKERELVASISYSGGSTYYADSVKGRFTISRDSAKNTVYLQMNSLKPEDTAVYYCAADDSVAYPYSGYQYYRHIYDDWGQGTQVTVSS,low polyreactivity

row,Sequence,polyreactivity (PSR sort gate)
1,QGQLVESGGGLVQAGGSLRLSCAASGSTFNSYAMGWYRQAPGKERELVAAISRGGASTYYADSVKGSFTISRDNAKNTVYLQMNSLKPEDTAVYYCATVYYHRFDYWGQGTQVTVSS,high polyreactivity
2,QGQLVESGGGLVQAGGSLRLSCAASGSTFTRYGMGWYRQAPGKERELVAAITTSGSSTYYADSVKGRFTISRDNAKNTVYLQMNSLKPEDTAVYYCAADWSSWGFDYWGQGTQVTVSS,low polyreactivity
3,QGQLVESGGGLVQAGGSLRLSCAASGSTFYLNAMGWYRQAPGKERELVATITRRGGRTYYADSVKGRFTISRDNAKNTVYLKMNSLKPEDTAVYYCNKGGISPGDALYGYWGQGTQVTVSS,low polyreactivity
4,QGQLVESGGGLVQAGGSLRLSCAASGSTFYTNAMGWYRQAPGKERELVAAISGSGGSTYYADSVKGRFTISRDNAKNTVYVQMNSRKPEDTAVYYCAARSRYYYTRFDYWGQGTQVTVSS,low polyreactivity
5,QGQLVESGGGLVQAGGSLRLSCAASGSTYPNNTMGWYREAPGKEWEFVAAITGDGGTTYYADSVKGRFTISRDNAKNTVYLQMNSLKPEDSAVYYCAVPYPAEGYGVDYWGQGTQVTVSS,low polyreactivity
6,QGQLVESGGGLVQAGGSLRLTCAASGSTFDQNVMGWYRQAPGKERELVDTINFSGDSTYYADSVKGRFTISRDNAKNTVYLQRNSLKPEDTAVYYCAVDWGEYIDTSVKRDISSYWGQGTQVTVSS,low polyreactivity
7,QGQLVESGGGLVQAGGSVRLSCAASRITLGSNAMGWDRQAPGKERELVAAITSGSSTYYADSVKGRFTISRDNAKNTVNLQMNSLKPEDTAVYYCAADPTSYSYEYNYWGQGTQVTVSS,low polyreactivity
8,QGQLVESGGGLVQAGGTLRLSCAASGSTFAVYVMGGYRQAPGTERELVAAISTSGARTYYADSVKGRFTISRDNAKNTVYLQMNSLKPEDTAVYYCAARSNALFRFDYWGQGTQVTVSS,high polyreactivity
9,QGQLVESGGGLVQAGVTLRLSCAASGITFPWYAMGWYRQAPGKERELVASITSGGSTNYADSVKGRFTISRDNSKNTVYLQMNSLKPEDTAVSYCARDWYSPVYWAAGYDAWGSGYDYWGQGTQVTVSS,high polyreactivity
10,QGQLVESWGGLVQAGGSLRLSCAASGSTLRRYAMGWYRQAPGKERELVAAISRRGGSTYYADSVKGRFSISRDFAKNTVYLEMNSLKPEDTAVYYCAAKGFSTRQFDYWGQGTQVTVSS,high polyreactivity
11,QIQLVESGGGLVQAGGSLRLSCAASGSIFSKYAMGWYRQAPGKERELVAAISAGGGSTYYADSVKGRFTISRDNAKNTVYLQMNSLKPEDTAVYYCAARSRFRFDYWVQGTQVTVSS,high polyreactivity
12,QIQLVESVGGLVQAGGSLRLSCDASGSTLKYTAMGWYRQAPRKESELVAAISTSGGNTYYADSVKGPFTISRDNAKNTVYLQMNSLKPEDTAVYYCAKVLGYYYYDYDSWGQGTQVTVSS,low polyreactivity
13,QLHLVESGGGLVQAGGSLRLSCAASGRSFGLNALGRSRQAHGKERELVAVISFGDGGTYYADSVKGRFTISLDNAKNTVYLQMNSLKPEDTAVYYCATDYQSTSVWGGHFVINPYDYWGQGTKVTVSS,low polyreactivity
14,QLHLVESWGGLVQAGGSLRLSCAASGILFQNNDMGSYRQAPGKERELVAAITGSGGSTYYADSVKGRFTISRDNATNTVYLQMNSLKPEDTAVYYCNAVWEYYGKSDYWGQGTQVTVSS,low polyreactivity
15,QLQHVDSGGGLVQAGGSLRLSCATSGIIFYDYDIGWSRQAPEKESELVARISRNGGRTYYADSVKGRFTISRDNAKNTVYLQMNSLNPEDTAVYYCNGVYFVTTSPGSDYWGQGTQVTVSS,high polyreactivity
16,QLQHVESGAVLVQAAGSLRLICAASGLIFPYNAMGWSRQAPGKERELVAAIDTRASSTYYADSVKGRFTISRDNAKNSVYLQMNSLKPEDTAVYYCATRRWGRRKGVGYWGQGTQVTVSS,high polyreactivity
17,QLQHVESGRGLVQAGGSLRLSCADSGRTYGGYDMGWYRQATVKERELVAAISYSGGSTYYADSVKGRFTISRDNAKNTVYLEMNSLKPEDTAVFYCAADGYDAYYWGQGTQVTVSS,low polyreactivity
18,QLQHVETGGGLVQAGGSLRLSCAASGSTFRSYVMGWYRQAPGKERELVAAISWITGSTYYADSVKGRFTISRDNAKNTVYLQMNSLKPEDTAVYDCAARYRTQSSLYYWGQGTQVTVSS,high polyreactivity
19,QLQIVESGGGLVQAGGSLRLTCAASGSTFPLYAMGWYSQAPGKEREFVAAIRWIGGSTYYADSVKGRFTISRDNAKNSVYLLMNSLKPEDTAVYYGAADYVVSAFDYWGQGTQVTVSS,low polyreactivity
20,QLQLQESGGGLVQAGGSLRLSCAASGPITRRSTMGWYRQAPRKVRELVTAITRGTNTNYADSVKGRFTISRDNAKNTEYLQMNSLKPEDTAVYYCAAYGVLKPSRGDAVFLRYLGQGTQVTVSS,low polyreactivity
21,QLQLQESGGGLVQAGGSLRLSCAASGSNSRYYDMGWYRQAAGKEREFVAGISGGAITYYEDSVKGRFTISRDNANITVYVQMNSLKPEDTAVYYCAADTGDYQYHSYWGQGTQVTVSS,low polyreactivity
